Assay [1] has as its target Leukine (commercial rhGM-CSF of Schering AG, expressed in yeast) (human) (UniProt P04141). Description: cell-based or functional assay.
Assay [2] concerns the target rhGM-CSF expressed in NM-F9 cells cultured with 90 mM ManNAc (optimal sialylation form of rhGM-CSF) (human) (UniProt P04141). In words: cell-based or functional assay.

With anti-human GM-CSF antibody BVD2-23 B6, the stimulation of TF-1 cell proliferation (BrdU-proliferation assay), blocking at 5 µg/ml antibody in assay [1] and in assay [2] was 60% in each case.

Source of the values: patent US8609370.
